The RNAGym collection of RNA variant scans (doi:10.1073/pnas.2313332121)

B1: TPR t1 (parent)
chain: GACCAAUCUGCCCUCAGAGCUCGAGAACAUCUUCGGAUGCAGAGGAGGCAGGCUUCGGUGGCGCGAUAGCGCCAACGUCCUCAACCUCCAAUGCAUCCCACCACAUGAUGAUGCCUGAAGAGCCUUGGUUUUUUG

Variants of: B1
Test: polymerase ribozyme fitness, log enrichment relative to wild type (log ratio); higher = more active; in vitro selection for triplet polymerase activity
Outline: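 Only genotypes with ≥10 input reads and ≥1 read per output were kept after Illumina sequencing of input and output libraries. These libraries were PCR-built, transcribed mutants of each subunit of a heterodimeric triplet polymerase ribozyme, each put through one triplicate in vitro selection round with frozen incubation at −7 °C, gel excision of extended constructs, streptavidin-bead capture and RT-PCR. Fitness is a logarithmic ratio of genotype enrichment to wild-type enrichment, from inverse-variance-weighted replicate averages, with the logarithm in base 2.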

Variant	polymerase ribozyme fitness (log ratio)
U32G A43G C73U A105U G120C	-7.51
U32G A103G C104A C123A	-6.74
U32G C53A C64U U109G	-7.34
U32G C56A C97A U109A	-6.23
U32G C62G G120U	-8.14
U32G C62U A105U U112G	-6.91
U32G U33C A43U A91U	-6.04
U32G U33C A43U A91U C124U	-5.75
U33A A46C G69U	-0.918
U33A A46C G69U U78G	-2.03
U33A C56G	-4.38
U33A C56G G69U	-2.45
U33A C64U U87A	-4.27
U33A C72A C76A	-6.92
U33A C82A	-5.5
U33A C89A	-6.86
U33A C102G U112A	-6.38
U33A G44A G51A G63A A66G A74U A111U	-7.25
U33A G48U U55C U109C A121G C124A G127C	-5.45
U33A G61A U87A U133G	-4.05
U33A G63A	-6.46
U33A G69U	-0.74
U33A G117U	-5.29
U33A G127C	-4.76

Variant	polymerase ribozyme fitness (log ratio)
U33A U59A U112C G122C	-4.47
U33A U129A	-6.13
U33C A46G C64G C86A C115G	-5.34
U33C C49A	-5.36
U33C G39U A111C A121C	-5.95
U33C G45A	-5.98
U33C U131A	-4.45
U33G A111U A121G U125A	-6.73
U33G C49G G57A C62U A84C C88G G93A G110C	-7.42
U33G C56A C88U	-4.09
U33G C70G G113U	-6.56
U33G C82U A83C	-6.87
U33G C104U C123G	-4.29
U33G G47C G61C C80A U112A U116C A119U	-6.76
U33G G47U C72U G120A	-6.26
U33G G60U C85G	-7.61
U33G G63C C124A	-4.77
U33G G65U C72G A111C A118U	-6.82
U33G G128A	-6.19
U33G U55A C72G	-6.25
U33G U87A	-6.14
U33G U96A G110C U116G	-6.31
U33G U133G	-6.24
C34A A37U A46U A74U G113C	-6.79

Variant	polymerase ribozyme fitness (log ratio)
C34A A41G	-3.94
C34A A46U	-3.37
C34A A46U A68U G71C C124G	-7.38
C34A A50C	-3.5
C34A A50C C53G U106A A111C	-5.87
C34A A75G	-2.34
C34A A83G A100U	-5.18
C34A A105U A121U	-1.99
C34A C40U C85G	-4.94
C34A C40U G48C C114U G120C	-3.6
C34A C53U C114A U129C	-5.56
C34A C62U	-2.79
C34A C64G	-6.42
C34A C70U C79U	-4.29
C34A C72U A100U	-4.44
C34A C80U	-4.3
C34A C94U A121G U125A U129A	-3
C34A C97G U125A	-3.42
C34A C101U	-2.53
C34A C101U C104U U133A	-1.95
C34A C123A U132C	-2.13
C34A C124A	-1.1
C34A G35U G48C	-3.95
C34A G36C A46G G93U A119G	-3.14

Variant	polymerase ribozyme fitness (log ratio)
C34A G39U C56G	-3.08
C34A G42U C70G U81A C101A	-8.04
C34A G44A G48A G61U A121C C123G	-4.48
C34A G44A G48A U59A G61U C72U A121C C123G	-6
C34A G48A C73U C101A	-4.83
C34A G52A U96C C124A	-1.41
C34A G57C	-2.62
C34A G58C	-2.18
C34A G60A	-3.35
C34A G60U	-3.73
C34A G61U A111G	-2.85
C34A G69A	-5.23
C34A G71U A75G	-4.12
C34A G71U U92A C114G	-7.83
C34A G93A C101U	-3.81
C34A G113U	-5.39
C34A G120A	-2.29
C34A G128C	-4.73
C34A U54A	-1.22
C34A U55C G60C U129G	-4.03
C34A U59A C114A	-5.37
C34A U59A C115U A118U	-6.82
C34A U87A A105G	-6.02
C34A U116C	-5.3

Variant	polymerase ribozyme fitness (log ratio)
C34G A108G	-6.09
C34G A111G G127A	-5.87
C34G C62U C94G A105C U130C	-7.14
C34G C64U	-6.18
C34G C72A U106G A119U	-7.42
C34G C72U	-5.89
C34G C72U U109A A119U C123U	-8.4
C34G C79A A91C C97U C99U A100C C101U G113C U130A	-6.71
C34G C98G C115A U125A	-7.53
C34G C115G	-7.42
C34G G36U C72U U96C G127C U130G	-6.19
C34G G48U G122A	-7.95
C34G G51U C53A G69U G120U	-7.39
C34G G61U C64U C99A G120A A121G	-5.39
C34G G63A	-7.1
C34G G63U	-8.24
C34G G63U C72U G110U	-8.01
C34G G120A	-5.16
C34G U55C G58A C82A C85U C88A C123U U131G	-6.74
C34G U78G	-6.71
C34G U125A	-5.11
C34U A37C G60C C124A	-3.79
C34U A41G C53U G69U	-2.44
C34U A95C	-5

Variant	polymerase ribozyme fitness (log ratio)
C34U C53U G61U G120A U132A	-3.26
C34U C53U U109G A119U A121C	-6.04
C34U C56A	-5.06
C34U C62A	-4.23
C34U C64U C88U	-4.34
C34U C86A C114U	-5.07
C34U C88G	-3.99
C34U C97U	-4.85
C34U C101U U112A	-6.92
C34U C124A	-2.31
C34U C124U	-2.06
C34U G36U G61A C97G A119G	-3.91
C34U G39C A50G	-5.57
C34U G44U	-4.41
C34U G45C C124G	-3.01
C34U G45C G69U C115G	-3.26
C34U G52A C62G A119G C123U G135C	-5.87
C34U G52U U87G U112A G135C	-5.16
C34U G69U	-0.765
C34U G117U	-5.02
C34U G120A A121C	-4.71
C34U G122U	-3.58
C34U U54A	-4.44
C34U U54A G61A	-4.4

Variant	polymerase ribozyme fitness (log ratio)
C34U U59A	-5.75
C34U U59G A121C C124G	-3.59
C34U U106A	-4.95
C34U U106C	-3.99
C34U U112A	-2.99
C34U U116C	-5.7
C34U U133A	-4.62
G35A A41C U54C C64A A84G C101U C123U	-7.59
G35A A103G	-6.59
G35A C53U G57U G69A A83U C115U	-6.36
G35A C62A	-5.05
G35A C62U	-4.22
G35A C64A C114G U125G	-7.35
G35A C70U	-2.72
G35A C72G	-2.69
G35A C72U	-4.58
G35A C73A	-3.7
G35A C73G C80A A121G	-6.83
G35A C85G U106G G120C	-4.02
G35A C86G	-5.03
G35A C88G	-4.5
G35A C88U C99A	-5.74
G35A C88U C102A	-5.27
